Test results taken from the supplement of paper PMC9112550, “Optimization of the antimicrobial peptide Bac7 by deep mutational scanning” (BMC Biology, 2022).

tested on: Escherichia coli TOP10; assay: shrunken log2 fold change of peptide-encoding DNA abundance (4.5 h post-induction vs induction); higher = less antimicrobial activity (less host growth inhibition); details: time post-induction: 4.5 h; library: site-saturation at positions 5, 18, 19, 20
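Also: peptides expressed intracellularly from a pBAD plasmid library in pooled LB shake-flask culture, induced with 0.3% L-arabinose, DNA abundance read by NGS, three biological replicates, DESeq2 with apeglm shrinkage.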

Row | Sequence | shrunken log2 fold change
1 | RRIRARPPRLPRPRPRPFKVPRP | 0.0346
2 | RRIRARPPRLPRPRPRPFKYPRP | -0.0956
3 | RRIRARPPRLPRPRPRPFLDPRP | 0.116
4 | RRIRARPPRLPRPRPRPFLMPRP | 0.791
5 | RRIRARPPRLPRPRPRPFLNPRP | -0.248
6 | RRIRARPPRLPRPRPRPFPGPRP | -0.116
7 | RRIRARPPRLPRPRPRPFPIPRP | 0.264
8 | RRIRARPPRLPRPRPRPFPWPRP | 0.477
9 | RRIRARPPRLPRPRPRPFQAPRP | 0.0111
10 | RRIRARPPRLPRPRPRPFRDPRP | -0.169
11 | RRIRARPPRLPRPRPRPFRKPRP | 0.00339
12 | RRIRARPPRLPRPRPRPFRPPRP | 0.153
13 | RRIRARPPRLPRPRPRPFSAPRP | -0.0294
14 | RRIRARPPRLPRPRPRPFSQPRP | -0.0436
15 | RRIRARPPRLPRPRPRPFWNPRP | 0.127
16 | RRIRARPPRLPRPRPRPFYSPRP | -0.0849
17 | RRIRARPPRLPRPRPRPFYTPRP | -0.685
18 | RRIRARPPRLPRPRPRPFYWPRP | -0.24
19 | RRIRARPPRLPRPRPRPGCGPRP | 0.887
20 | RRIRARPPRLPRPRPRPGCMPRP | 0.727
21 | RRIRARPPRLPRPRPRPGCPPRP | 0.343
22 | RRIRARPPRLPRPRPRPGDKPRP | 0.173

Row | Sequence | shrunken log2 fold change
23 | RRIRARPPRLPRPRPRPGFSPRP | 0.329
24 | RRIRARPPRLPRPRPRPGFTPRP | 0.204
25 | RRIRARPPRLPRPRPRPGKCPRP | 0.0981
26 | RRIRARPPRLPRPRPRPGKYPRP | -0.152
27 | RRIRARPPRLPRPRPRPGLEPRP | 0.629
28 | RRIRARPPRLPRPRPRPGLKPRP | 0.469
29 | RRIRARPPRLPRPRPRPGMPPRP | 0.128
30 | RRIRARPPRLPRPRPRPGNMPRP | -0.0598
31 | RRIRARPPRLPRPRPRPGQLPRP | 0.359
32 | RRIRARPPRLPRPRPRPGQQPRP | 0.209
33 | RRIRARPPRLPRPRPRPGQVPRP | 0.402
34 | RRIRARPPRLPRPRPRPGRYPRP | 0.54
35 | RRIRARPPRLPRPRPRPGSCPRP | 0.32
36 | RRIRARPPRLPRPRPRPGTPPRP | 0.642
37 | RRIRARPPRLPRPRPRPGTQPRP | 0.316
38 | RRIRARPPRLPRPRPRPGWLPRP | 0.285
39 | RRIRARPPRLPRPRPRPGWPPRP | 0.789
40 | RRIRARPPRLPRPRPRPGWVPRP | 0.29
41 | RRIRARPPRLPRPRPRPGYEPRP | 0.246
42 | RRIRARPPRLPRPRPRPHALPRP | 0.112
43 | RRIRARPPRLPRPRPRPHCAPRP | 0.149
44 | RRIRARPPRLPRPRPRPHCCPRP | 0.134

Row | Sequence | shrunken log2 fold change
45 | RRIRARPPRLPRPRPRPHCVPRP | 0.0669
46 | RRIRARPPRLPRPRPRPHDLPRP | 0.084
47 | RRIRARPPRLPRPRPRPHDVPRP | 0.0276
48 | RRIRARPPRLPRPRPRPHEVPRP | 0.101
49 | RRIRARPPRLPRPRPRPHFFPRP | 1.8
50 | RRIRARPPRLPRPRPRPHGNPRP | -0.0231
51 | RRIRARPPRLPRPRPRPHGYPRP | 0.0466
52 | RRIRARPPRLPRPRPRPHHGPRP | -0.122
53 | RRIRARPPRLPRPRPRPHHPPRP | -0.242
54 | RRIRARPPRLPRPRPRPHHQPRP | -0.0146
55 | RRIRARPPRLPRPRPRPHHRPRP | 0.00443
56 | RRIRARPPRLPRPRPRPHLYPRP | -0.218
57 | RRIRARPPRLPRPRPRPHMSPRP | -0.181
58 | RRIRARPPRLPRPRPRPHNNPRP | -0.363
59 | RRIRARPPRLPRPRPRPHQSPRP | 0.265
60 | RRIRARPPRLPRPRPRPHQYPRP | -0.278
61 | RRIRARPPRLPRPRPRPHSAPRP | -0.0202
62 | RRIRARPPRLPRPRPRPHSIPRP | -0.344
63 | RRIRARPPRLPRPRPRPHSNPRP | -0.251
64 | RRIRARPPRLPRPRPRPHTPPRP | 0.152
65 | RRIRARPPRLPRPRPRPICAPRP | 0.799
66 | RRIRARPPRLPRPRPRPICEPRP | 0.512

Row | Sequence | shrunken log2 fold change
67 | RRIRARPPRLPRPRPRPIDCPRP | 0.335
68 | RRIRARPPRLPRPRPRPIDIPRP | 0.0327
69 | RRIRARPPRLPRPRPRPIEQPRP | 0.124
70 | RRIRARPPRLPRPRPRPIFIPRP | 0.127
71 | RRIRARPPRLPRPRPRPIGAPRP | 0.716
72 | RRIRARPPRLPRPRPRPIGGPRP | -0.0402
73 | RRIRARPPRLPRPRPRPIIEPRP | 0.00879
74 | RRIRARPPRLPRPRPRPIIMPRP | -0.258
75 | RRIRARPPRLPRPRPRPIKYPRP | -0.38
76 | RRIRARPPRLPRPRPRPILNPRP | -0.273
77 | RRIRARPPRLPRPRPRPIMFPRP | -0.0901
78 | RRIRARPPRLPRPRPRPIPMPRP | 0.0374
79 | RRIRARPPRLPRPRPRPIQEPRP | 0.116
80 | RRIRARPPRLPRPRPRPIQQPRP | 0.0227
81 | RRIRARPPRLPRPRPRPIQVPRP | -0.215
82 | RRIRARPPRLPRPRPRPIRFPRP | 0.247
83 | RRIRARPPRLPRPRPRPIVDPRP | 0.543
84 | RRIRARPPRLPRPRPRPIYNPRP | -0.668
85 | RRIRARPPRLPRPRPRPKAEPRP | 0.821
86 | RRIRARPPRLPRPRPRPKDFPRP | -0.0146
87 | RRIRARPPRLPRPRPRPKDNPRP | 0.153
88 | RRIRARPPRLPRPRPRPKFDPRP | 0.376

Row | Sequence | shrunken log2 fold change
89 | RRIRARPPRLPRPRPRPKFHPRP | 0.133
90 | RRIRARPPRLPRPRPRPKGAPRP | 0.514
91 | RRIRARPPRLPRPRPRPKGFPRP | 0.102
92 | RRIRARPPRLPRPRPRPKGYPRP | 0.049
93 | RRIRARPPRLPRPRPRPKHDPRP | 0.263
94 | RRIRARPPRLPRPRPRPKHKPRP | 0.172
95 | RRIRARPPRLPRPRPRPKINPRP | -0.0292
96 | RRIRARPPRLPRPRPRPKKCPRP | 0.0283
97 | RRIRARPPRLPRPRPRPKKQPRP | 0.0491
98 | RRIRARPPRLPRPRPRPKLHPRP | 0.366
99 | RRIRARPPRLPRPRPRPKLSPRP | 0.138
100 | RRIRARPPRLPRPRPRPKSLPRP | -0.109
101 | RRIRARPPRLPRPRPRPKVIPRP | 0.116
102 | RRIRARPPRLPRPRPRPKVWPRP | 0.766
103 | RRIRARPPRLPRPRPRPKYNPRP | -0.411
104 | RRIRARPPRLPRPRPRPKYTPRP | -0.013
105 | RRIRARPPRLPRPRPRPLAHPRP | 0.296
106 | RRIRARPPRLPRPRPRPLCQPRP | 0.42
107 | RRIRARPPRLPRPRPRPLDPPRP | 0.244
108 | RRIRARPPRLPRPRPRPLEFPRP | 0.231
109 | RRIRARPPRLPRPRPRPLEGPRP | 0.564
